How the values were obtained:
[1] = molecular target: T1, Bcl-2(1-206) (human, UniProt P10415 1-206); assay: NMR titration; 1H-15N TROSY-HSQC spectra of 10-45 uM uniformly 15N-labelled Bcl-2 fragment without and with Beclin 1 BH3 peptide added from a d6-DMSO stock; 25 °C, 20 mM sodium phosphate pH 7.3, 1 mM TCEP, 7% D2O; conditions: both partners purified
T1 construct: vector analogous to that of human Bcl-2(1-218), isoform alpha; Uniformly 15N-labelled for NMR; Vector was a gift from Beth Levine, called analogous to the pSKB2 vector of Bcl-2(1-218); also called Bcl-2 fragment lacking the juxtamembrane region; Bcl-2(1-2-6); source: E. coli BL21 (DE3), purified (Ni-NTA, His6-tag cleaved with 3C protease, Superdex 75); not shown: His6, N-terminal, cleaved
T1 sequence (P10415 1-206): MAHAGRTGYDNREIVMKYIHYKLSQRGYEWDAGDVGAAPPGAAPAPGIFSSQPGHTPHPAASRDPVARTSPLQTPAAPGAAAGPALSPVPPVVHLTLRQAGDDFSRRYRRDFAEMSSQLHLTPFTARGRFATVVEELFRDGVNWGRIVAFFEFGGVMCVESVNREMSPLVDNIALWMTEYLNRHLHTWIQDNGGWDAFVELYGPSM

[2] = molecular target: T2, Bcl-2(1-218) (human, UniProt P10415 1-218); assay: as above; conditions: both partners purified
T2 construct: Uniformly 15N-labelled for NMR. pSKB2 vector with HRV 3C cleavage site; also called cytoplasmic region of Bcl-2 (residues 1-218); Becl-2(1-218); source: E. coli BL21 (DE3), purified (Ni-NTA, His6-tag cleaved with 3C protease, Superdex 75); not shown: His6, N-terminal, cleaved
T2 sequence (P10415 1-218): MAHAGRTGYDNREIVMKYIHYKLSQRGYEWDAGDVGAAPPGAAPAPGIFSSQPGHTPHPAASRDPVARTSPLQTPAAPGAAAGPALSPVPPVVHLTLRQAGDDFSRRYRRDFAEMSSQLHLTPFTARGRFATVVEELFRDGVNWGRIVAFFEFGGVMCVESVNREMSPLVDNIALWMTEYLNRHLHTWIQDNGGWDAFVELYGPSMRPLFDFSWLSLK

B1: Beclin 1 BH3 peptide (peptide)
peptide: DGGTMENLSRRLKVTGDLFDIMSGQT
notes: Beclin 1, human, residues 105-130 (BH3 domain); L-amino acid peptide, dissolved in d6-dimethylsulfoxide; also called Beclin 1 BH3 domain; source: synthetic peptide (Protein Chemistry Technology Core, UT Southwestern), HPLC purified
Question: Does B1 bind [1]?
Answer: Result: binds

Question: Does B1 bind [2]?
Answer: Result: binds
